# Laboratory results reported in US7354734B2, “Fungal proteins and nucleic acids encoding same” (priority 2003, dated 2008).
# Entries after “also recorded” stand apart in the source; their conditions may differ. Like-named read-outs stand apart in the source and are kept apart here.
# B1: ruLAP2: T. rubrum leucine aminopeptidase, 495 amino acid residues (SEQ ID NO: 3) (protein, listed as Trichophyton rubrum)
# chain: MKSQLLSLAVAVTTISQGVVGQEPFGWPFKPMVTQDDLQNKIKLKDIMAGVEKLQSFSDAHPEKNRVFGGNGHKDTVEWIYNEIKATGYYDVKKQEQVHLWSHAEAALNANGKDLKASAMSYSPPASKIMAELVVAKNNGCNATDYPANTQGKIVLVERGVCSFGEKSAQAGDAKAAGAIVYNNVPGSLAGTLGGLDKRHVPTAGLSQEDGKNLATLVASGKIDVTMNVISLFENRTTWNVIAETKGGDHNNVIMLGAHSDSVDAGPGINDNGSGSIGIMTVAKALTNFKLNNAVRFAWWTAEEFGLLGSTFYVNSLDDRELHKVKLYLNFDMIGSPNFANQIYDGDGSAYNMTGPAGSAEIEYLFEKFFDDQGIPHQPTAFTGRSDYSAFIKRNVPAGGLFTGAEVVKTPEQVKLFGGEAGVAYDKNYHRKGDTVANINKGAIFLNTRAIAYAIAEYARSLKGFPTRPKTGKRDVNPQYSKMPGGGCGHHTVFM
# Columns and labels:
# fuLAP1 = fuLAP1 (Aspergillus fumigatus, UniProt Q5VJG6); assay: biochemical; type: biochemical; conditions: for effect of inhibitor on fuLAP1 activity: Leu-AMC 5 mM
# [1] = test system: T. rubrum secreted proteolytic activity; assay: Inhibition of T. rubrum secreted proteolytic activity (resorufin-labeled casein); type: biochemical, Trichophyton rubrum; conditions: T. rubrum culture medium, resorufin-labeled casein as substrate
# Protocol: The proteolytic activity was measured using resorufin-labeled casein in phosphate buffer (20 mM; pH 7.4). The reaction mixture contained 0.02% substrate in a total volume of 0.5 ml. After incubation at 37° C., the undigested substrate was precipitated by trichloroacetic add (4% final concentration) and separated from the supernatant by centrifugation. The absorbance at 574 nm of the supernatant was measured after alkalinization by adding 500 μl Tris buffer (500 mM; pH 9.4). For practical purposes, one unit (U) of proteolytic activity was defined as that producing an absorbance of 0.001 per min.
# T. rubrum was grown at 30° C. in a medium containing 0.2% soy protein as a sole carbon and nitrogen source. After 14 days of growth, a concomitant clarification of the culture medium was noted and a substantial proteolytic activity (400 U ml^−1) detected using resorufin-labeled casein as substrate. This proteolytic activity was 15% and 85% inhibited by PMSF and ortho-phenanthroline, respectively, attesting that serine and metalloproteases were secreted by T. rubrum. […] In addition, a high activity on substrates such as Leu-AMC and Leu-pNA was detected in the T. rubrum culture supernatant.
# ruLAP2 = ruLAP2 (Trichophyton rubrum, UniProt Q5QHG6); type: biochemical; conditions: for effect of inhibitor on ruLAP2 activity: Leu-AMC 5 mM
# fuLAP2 = type: biochemical, Aspergillus fumigatus; conditions: for effect of inhibitor on fuLAP2 activity: Leu-AMC 5 mM
# ruLAP1 = ruLAP1 (Trichophyton rubrum, UniProt Q5QHG5); type: biochemical
# [2] = molecular target: T1, pkLAP (microsomal LAP from porcine kidney) (Sus scrofa, UniProt P15145); assay: Effect of inhibitors and metallic cations on LAP activity (Leu-AMC); type: biochemical; conditions: for effect of inhibitor on pkLAP activity: Leu-AMC 5 mM
# T1 construct: purchased Sigma; host or cells: porcine kidney
# T1 sequence (P15145 1-963): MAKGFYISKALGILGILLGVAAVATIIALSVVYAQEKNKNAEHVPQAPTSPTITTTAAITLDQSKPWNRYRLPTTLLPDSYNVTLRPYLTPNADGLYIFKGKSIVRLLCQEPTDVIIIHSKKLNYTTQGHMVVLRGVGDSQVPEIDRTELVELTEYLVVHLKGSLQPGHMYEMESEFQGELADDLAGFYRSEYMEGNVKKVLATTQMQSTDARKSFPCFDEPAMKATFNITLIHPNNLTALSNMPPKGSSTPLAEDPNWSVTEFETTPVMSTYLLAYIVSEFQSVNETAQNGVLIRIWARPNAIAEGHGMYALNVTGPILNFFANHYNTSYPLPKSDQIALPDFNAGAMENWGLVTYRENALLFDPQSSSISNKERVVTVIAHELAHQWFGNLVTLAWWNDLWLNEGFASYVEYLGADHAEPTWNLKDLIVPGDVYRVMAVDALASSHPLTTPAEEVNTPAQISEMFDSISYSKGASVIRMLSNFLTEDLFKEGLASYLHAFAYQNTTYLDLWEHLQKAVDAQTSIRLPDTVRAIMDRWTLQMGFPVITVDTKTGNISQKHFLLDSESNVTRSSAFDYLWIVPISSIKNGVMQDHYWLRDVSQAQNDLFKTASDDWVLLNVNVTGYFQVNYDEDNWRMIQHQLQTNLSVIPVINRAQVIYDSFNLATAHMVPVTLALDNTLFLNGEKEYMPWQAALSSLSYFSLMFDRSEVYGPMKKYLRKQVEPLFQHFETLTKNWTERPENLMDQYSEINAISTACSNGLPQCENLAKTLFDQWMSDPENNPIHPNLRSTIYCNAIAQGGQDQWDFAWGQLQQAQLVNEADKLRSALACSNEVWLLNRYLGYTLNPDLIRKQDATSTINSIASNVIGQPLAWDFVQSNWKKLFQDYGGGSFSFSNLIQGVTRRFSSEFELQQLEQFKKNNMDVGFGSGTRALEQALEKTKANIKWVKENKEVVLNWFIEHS
# Ala-proNPY = assay: Digestion of Ala-proNPY; type: biochemical; conditions: conditions as for Gly-Ser-proNPY
# Protocol: The digested material was isolated by RP-HPLC and characterized by ESI-MS. […] The same result is obtained at an 1:[…] ratio. Digestion halts when the enzyme reaches a Xaa-Pro-motif, which in case of proNPY is Tyr-Pro. Conditions of incubation were the same as for Gly-Ser-proNPY.
# [3] = test system: gliadin 14mer PQPQLPYPQPQLPY (fragment 82-95 of α/β gliadin AIV); type: biochemical, wheat
# [4] = type: biochemical
# [5] = type: biochemical; conditions: substrate Lys(Abz)Pro-PropNA 5 mM, 37° C., 60 min
# Gly-Ser-proNPY = assay: Digestion of Gly-Ser-proNPY; type: biochemical; conditions: overnight 37° C., 1 mM CoCl2, E/S 1:20
# From the text: The digested material was isolated by RP-HPLC and characterized by ESI-MS. […] The same result is obtained at an 1:[…] ratio. Digestion halts when the enzyme reaches a Xaa-Pro-motif, which in case of proNPY is Tyr-Pro.
# [6] = test system: gliadin 33mer (fragment 57-89 of gliadin MM1); assay: Digestion of gliadin 33mer (RP-HPLC, ESI-MS); type: biochemical, wheat; conditions: 37° C.
# [7] = inhibitor 40 μM, Leu-MCA substrate, 15 min pre-incubation
# Sequence of ruLAP1 (Q5QHG5 21-373): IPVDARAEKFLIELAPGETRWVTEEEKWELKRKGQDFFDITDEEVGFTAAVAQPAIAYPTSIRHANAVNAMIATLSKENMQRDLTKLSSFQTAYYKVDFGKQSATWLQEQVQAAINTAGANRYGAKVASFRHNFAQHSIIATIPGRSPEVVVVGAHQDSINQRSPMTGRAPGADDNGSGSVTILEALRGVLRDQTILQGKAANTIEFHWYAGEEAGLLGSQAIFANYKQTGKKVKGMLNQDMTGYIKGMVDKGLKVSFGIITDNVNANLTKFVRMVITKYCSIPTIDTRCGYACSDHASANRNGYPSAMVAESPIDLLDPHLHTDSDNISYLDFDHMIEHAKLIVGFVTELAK
# Sequence of fuLAP1 (Q5VJG6 16-388): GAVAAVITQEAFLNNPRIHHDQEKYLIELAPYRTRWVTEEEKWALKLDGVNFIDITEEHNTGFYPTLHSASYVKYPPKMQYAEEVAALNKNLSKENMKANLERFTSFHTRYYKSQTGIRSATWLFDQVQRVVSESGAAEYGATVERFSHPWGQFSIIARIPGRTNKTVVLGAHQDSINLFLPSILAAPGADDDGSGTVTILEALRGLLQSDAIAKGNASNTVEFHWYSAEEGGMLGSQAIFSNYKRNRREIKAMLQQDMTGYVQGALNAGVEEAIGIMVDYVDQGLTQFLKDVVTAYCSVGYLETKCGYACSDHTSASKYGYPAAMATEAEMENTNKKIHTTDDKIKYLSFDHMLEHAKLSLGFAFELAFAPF
molecule,measurement,setting,value
"c1cnc2c(c1)ccc1cccnc12 [ortho-phenantroline, ortho-phenanthroline]",effect of inhibitor on fuLAP1 activity,fuLAP1,totally inhibited
same,inhibition of proteolytic activity,[1],85%
same,effect of inhibitor on ruLAP2 activity,ruLAP2,totally inhibited
same,effect of inhibitor on fuLAP2 activity,fuLAP2,totally inhibited
same,effect of inhibitor on ruLAP1 activity,ruLAP1; Leu-AMC 5 mM,totally inhibited
same,effect of inhibitor on pkLAP activity,[2],totally inhibited
O=S(=O)(F)Cc1ccccc1 [PMSF],effect of inhibitor on fuLAP1 activity,fuLAP1,no clear inhibitory effects
same,fuLAP1 activity as percentage of control reaction without inhibitor,fuLAP1; [7],156%
same,inhibition of proteolytic activity,[1],15%
same,effect of inhibitor on ruLAP2 activity,ruLAP2,no clear inhibitory effects
same,ruLAP2 activity as percentage of control reaction without inhibitor,ruLAP2; [7],79%
same,effect of inhibitor on fuLAP2 activity,fuLAP2,no clear inhibitory effects
same,fuLAP2 activity as percentage of control reaction without inhibitor,fuLAP2; [7],84%
same,effect of inhibitor on ruLAP1 activity,ruLAP1,no clear inhibitory effects
same,ruLAP1 activity as percentage of control reaction without inhibitor,ruLAP1; 40 µM,78%
same,effect of inhibitor on pkLAP activity,[2],no clear inhibitory effects
same,pkLAP activity as percentage of control reaction without inhibitor,[2]; [7],58%
B1,removal of N-terminal alanine from Ala-proNPY,Ala-proNPY,almost totally removed
same,"digestion of gliadin 14mer, supplemented with ruDPPIV",[3],complete breakdown
same,"digestion of gliadin 14mer, enzyme alone","[3]; 4 h, 37° C.",not digested
same,hydrolytic activity toward Asp-AMC,[4]; compared to Leu-AMC,efficiently cleaved; also recorded: efficiently hydrolyze
same,hydrolytic activity toward Glu-AMC,[4]; compared to Leu-AMC,efficiently cleaved; also recorded: efficiently hydrolyze
same,hydrolytic activity toward Pro-AMC,[4]; compared to Leu-AMC,more efficiently cleaved
same,hydrolytic activity toward Ser-AMC,[4]; compared to Leu-AMC,more efficiently cleaved
same,hydrolytic activity toward Ala-AMC in comparison to Leu-MCA used as a standard,"[4]; substrate Ala-AMC 5 mM, 37° C., 60 min",33.3%
same,hydrolytic activity toward Arg-AMC in comparison to Leu-MCA used as a standard,"[4]; substrate Arg-AMC 5 mM, 37° C., 60 min",1.9%
same,hydrolytic activity toward Asn-AMC in comparison to Leu-MCA used as a standard,"[4]; substrate Asn-AMC 5 mM, 37° C., 60 min",114.6%
same,hydrolytic activity toward Asp-AMC in comparison to Leu-MCA used as a standard,"[4]; substrate Asp-AMC 5 mM, 37° C., 60 min",3.8%
same,hydrolytic activity toward Cys-AMC in comparison to Leu-MCA used as a standard,"[4]; substrate Cys-AMC 5 mM, 37° C., 60 min",14.9%
same,hydrolytic activity toward Gln-AMC in comparison to Leu-MCA used as a standard,"[4]; substrate Gln-AMC 5 mM, 37° C., 60 min",49.9%
same,hydrolytic activity toward Glu-AMC in comparison to Leu-MCA used as a standard,"[4]; substrate Glu-AMC 5 mM, 37° C., 60 min",3.7%
same,hydrolytic activity toward Gly-AMC in comparison to Leu-MCA used as a standard,"[4]; substrate Gly-AMC 5 mM, 37° C., 60 min",3.3%
same,hydrolytic activity toward Gly-Pro-AMC in comparison to Leu-MCA used as a standard,"[4]; substrate Gly-Pro-AMC 5 mM, 37° C., 60 min",7.2%
same,hydrolytic activity toward His-AMC in comparison to Leu-MCA used as a standard,"[4]; substrate His-AMC 5 mM, 37° C., 60 min",0.6%
same,hydrolytic activity toward Hyp-AMC in comparison to Leu-MCA used as a standard,"[4]; substrate Hyp-AMC 5 mM, 37° C., 60 min",14.2%
same,hydrolytic activity toward Ile-AMC in comparison to Leu-MCA used as a standard,"[4]; substrate Ile-AMC 5 mM, 37° C., 60 min",6.4%
same,hydrolysis of Leu-AMC,[4]; substrate Leu-AMC,efficiently hydrolyzed; also recorded: common preference
same,hydrolytic activity toward Leu-AMC in comparison to Leu-MCA used as a standard,"[4]; substrate Leu-AMC 5 mM, 37° C., 60 min",100.0%
same,hydrolytic activity toward Lys-AMC in comparison to Leu-MCA used as a standard,"[4]; substrate Lys-AMC 5 mM, 37° C., 60 min",4.6%
same,hydrolytic activity toward Met-AMC in comparison to Leu-MCA used as a standard,"[4]; substrate Met-AMC 5 mM, 37° C., 60 min",119.7%
same,hydrolytic activity toward Phe-AMC in comparison to Leu-MCA used as a standard,"[4]; substrate Phe-AMC 5 mM, 37° C., 60 min",17.1%
same,hydrolytic activity toward Pro-AMC in comparison to Leu-MCA used as a standard,"[4]; substrate Pro-AMC 5 mM, 37° C., 60 min",21.4%
same,hydrolytic activity toward Pyr-AMC in comparison to Leu-MCA used as a standard,"[4]; substrate Pyr-AMC 5 mM, 37° C., 60 min",0.0%
same,hydrolytic activity toward Ser-AMC in comparison to Leu-MCA used as a standard,"[4]; substrate Ser-AMC 5 mM, 37° C., 60 min",26.1%
same,hydrolytic activity toward Thr-AMC in comparison to Leu-MCA used as a standard,"[4]; substrate Thr-AMC 5 mM, 37° C., 60 min",0.9%
same,hydrolytic activity toward Val-AMC in comparison to Leu-MCA used as a standard,"[4]; substrate Val-AMC 5 mM, 37° C., 60 min",4.8%
same,hydrolytic activity toward Lys(Abz)Pro-PropNA in comparison to Leu-MCA used as a standard,[5],0.0%
same,digestion of denatured casein,denatured casein,sequentially digest
same,N-terminal cleavage of Gly-Ser-proNPY,Gly-Ser-proNPY,cleavage of the two N-terminal residues Gly-Ser
same,"digestion of gliadin 33mer, mixed with ruDPPIV",[6]; enzyme plus ruDPPIV (DPPIV),totally digested; also recorded: same HPLC pattern
same,"degradation of gliadin 33mer, enzyme alone",[6]; within 4 h,less than 50%
